This series concerns GST-MBNL1 (GST-MBNL1Δ101 in Methods). The series can be described thus: EMSA. As to conditions: EMSA: 0.75 mM MgCl2, 50 mM Tris-HCl pH 7.0, 75 mM NaCl, 37.5 mM KCl, 5.25 mM DTT, 0.1 mg/ml BSA, 0.1 mg/ml bulk tRNA, RNasin 0.4 U/ul; 20 min on ice, gel at …. In general terms: Mobility shift assays separate free from complexed probe on a gel.

Broadly, the IC50 is the midpoint of a concentration-inhibition curve. Sequence CUG 10x RNA registered an IC50 of 100 nM.
